From patent US20220363769A1 (SORRISO PHARMACEUTICALS, published 2022)
One block for each binder: values may come before it.

B20: ID-A59U (VHH)
VHH: DVQLVESGGGLVQAGGSLRLSCESSISTFSSDAMGWFRQAPGKEREFLAAIGWSGAVTHYSDSVKGRFTISRDNAKNTVYLQMNSLRAEDTGRYYCAEDYDTDVWQYWGQGTQVTVSS
notes: V7R-2E9 with E1D, Q65K, K87R, S88A; S. cerevisiae-expressed equivalent of ID-A40U
B21: cynomolgus monkey IL-7Rα (receptor)
chain: ESGYAQNGDLEDAELDDYSFSCYSQLEVNGSQHSLTCAFEDPDVNTTNLEFEICGALVEVKCLSFRKLQEIYFIETKKFLLIGKSNICVKVGGKSLTCKKIDLTTIVKPEAPFDLSVIYREGANDFVVTFNTSHLQKKYVKVLMHDVAYRQEKDENKWMHVNLSSTKLTLLQRNLQPEAMYEIKVRSIPDHYFKGFWSEWSPSYYFRTPEINNSPGEMD
notes: also called cynomolgus IL-7Rα

Key:
[1] = target: T1, recombinant human IL-7Rα-His6-Fc (human, UniProt P16871 21-239); assay: IL-7/IL-7Rα-His6-Fc ELISA; inhibition of IL-7 binding to IL-7R
T1 construct: also called hIL-7R; not shown: His6 tag; Fc (captured by anti-human IgG Fc)
T1 chain: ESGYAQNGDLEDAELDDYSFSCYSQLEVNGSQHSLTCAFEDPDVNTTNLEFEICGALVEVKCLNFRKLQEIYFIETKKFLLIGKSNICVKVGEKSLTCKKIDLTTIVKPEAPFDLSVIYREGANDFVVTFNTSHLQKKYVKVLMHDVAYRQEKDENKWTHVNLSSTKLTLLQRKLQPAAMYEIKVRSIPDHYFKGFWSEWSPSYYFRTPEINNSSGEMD

[2] = target: T1, recombinant human IL-7Rα-His6-Fc; assay: IL-7/IL-7R neutralising ELISA; inhibition of IL-7 binding to IL-7R
Description: A 7-point dilution series of the clones was prepared in 1% BSA (at 2× the assay concentration) starting at 300 nM and using a 3.2 dilution factor. […] Block buffer alone was also added to each plate as blank. […] TMB reaction was stopped after 30 minutes.
EC₅₀ values were generated in Graphpad prism using the ELISA signal blank corrected A450 data and ‘log(inhibitor) vs. response—Variable slope (four parameters)’ to fit curves and generate EC₅₀.

ID-A40U [3] = target: T2, ID-A40U; assay: competition ELISA: ID-A40U premixed with serially diluted soluble IL-7R, then added to plate-coated human IL-7Rα-His6-Fc; bound ICVD detected
T2 construct: V7R-2E9 with Q65K, K87R, S88A; produced in E. coli; also called A40U-F/H; not shown: Flag-His6 tag
Description: (§1) 96-well plates were coated with 0.5 μg/mL recombinant human IL-7Rα His₆-Fc +5 μg/mL BSA and then blocked. 0.5 nM of ICVD was mixed 1:1 with the test compounds of choice serially diluted in 1% BSA, then incubated for 30 minutes to allow binding before adding to the IL-7Rα coated plates. Following 2 hours incubation, bound ICVD was detected with 50 uL/well 1/20000 anti-FLAG-HRP Goat antibody (GeneTex, GTX21238), and the level of neutralisation of ICVD-IL-7Rα binding by the test compounds was determined.

ID-A40U [4] = target: T2, ID-A40U; assay: competition ELISA: ID-A40U premixed with serially diluted soluble receptor, then added to plate-coated human IL-7Rα; bound ICVD detected [left panel]
Description: as §1

ID-A40U [5] = target: T2, ID-A40U; assay: competition ELISA: ID-A40U premixed with serially diluted soluble receptor, then added to plate-coated human IL-7Rα; bound ICVD detected [right panel]
Description: as §1

cynomolgus monkey IL-7Rα = target: B21; assay: competition ELISA: A59U premixed with serially diluted soluble IL-7R, then added to plate-coated human IL-7Rα-His6-Fc; bound ICVD detected [left panel (cross-reactivity A59U]
Description: as §1

ID-A59U = target: B20; assay: as above
Description: as §1

ID-A62U = target: T3, ID-A62U; assay: competition ELISA: A62U premixed with serially diluted soluble IL-7R, then added to plate-coated human IL-7Rα-His6-Fc; bound ICVD detected [right panel (cross-reactivity A62U]
T3 construct: V7R-2E9 with E1D, R45L, Q65K, K87R, S88A; produced in S. cerevisiae
Description: as §1

EC50 [1]: 0.46 nM
B1: ID-A28U (VHH)
VHH: EVQLVESGGGLVQAGGSLRLSCESSISTFSSDAMGWFRQAPGKGLEWLAAIGWSGAVTHYSDSVKGRFTISRDNAKNTVYLQMNSLKAEDTGRYYCAEDYDTDVWQYWGQGTQVTVSS
notes: V7R-2E9 with E44G, R45L, F47W, Q65K, S88A

EC50 [1]: 0.845 nM
B2: ID-A37U (VHH)
VHH: EVQLVESGGGLVQAGGSLRLSCESSISTFSSDAMGWFRQAPGKGREFLAAIGWSGAVTHYSDSVKGRFTISRDNAKNTVYLQMNSLRSEDTGRYYCAEDYDTDVWQYWGQGTQVTVSS
notes: V7R-2E9 with E44G, Q65K, K87R

EC50 [1]: 0.849 nM
B3: ID-A35U (VHH)
VHH: EVQLVESGGGLVQAGGSLRLSCESSISTFSSDAMGWFRQAPGKEREFLAAIGWSGAVTHYSDSVKGRFTISRDNAKNTVYLQMNSLKAEDTGRYYCAEDYDTDVWQYWGQGTQVTVSS
notes: V7R-2E9 with Q65K, S88A

EC50 [2]: 0.361 nM
B4: V7R-2F6 (VHH)
VHH: EVQLVESGGGLVQAGGSLRLSCESSIGTFSSDAMGWFRQAPGKEREFLAAIGWSGTVTHYSDSVQGRFTISRDNAKNTVYLQMNSLKSEDTGRYYCAEDYDTDVWQYWGQGTQVTVSS
notes: llama ICVD, primary clone, expressed in E. coli TG1; not shown: C-terminal FLAG and 6xHis tags from vector pMEK222

EC50 [1]: 0.362 nM
B5: ID-A30U (VHH)
VHH: EVQLVESGGGLVQAGGSLRLSCESSISTFSSDAMGWFRQAPGKGREFLAAIGWSGAVTHYSDSVKGRFTISRDNAKNTVYLQMNSLRAEDTGRYYCAEDYDTDVWQYWGQGTQVTVSS
notes: V7R-2E9 with E44G, Q65K, K87R, S88A

EC50 [1]: 0.336 nM
B6: ID-A31U (VHH)
VHH: EVQLVESGGGLVQAGGSLRLSCESSISTFSSDAMGWFRQAPGKGREFLAAIGWSGAVTHYSDSVKGRFTISRDNAKNTVYLQMNSLKSEDTGRYYCAEDYDTDVWQYWGQGTQVTVSS
notes: V7R-2E9 with E44G, Q65K

EC50 [1]: 0.376 nM
B7: ID-A34U (VHH)
VHH: EVQLVESGGGLVQAGGSLRLSCESSISTFSSDAMGWFRQAPGKEREFLAAIGWSGAVTHYSDSVKGRFTISRDNAKNTVYLQMNSLRSEDTGRYYCAEDYDTDVWQYWGQGTQVTVSS
notes: V7R-2E9 with Q65K, K87R

EC50 [2]: 0.259 nM
B8: V7R-4F6 (VHH)
VHH: EVQLVESGGGLVQAGGSLRLSCESSISTFGSDAMGWFRQAPGKEREFVAATGWSGAVTHYSDSVKGRFTISRDNAKNTVYLQMNSLKSEDTGTYYCAEDYDTDVWQYWGQGTQVTVSS
notes: as for B4

EC50 [1]: 0.411 nM
B9: ID-A39U (VHH)
VHH: EVQLVESGGGLVQAGGSLRLSCESSISTFSSDAMGWFRQAPGKGREFLAAIGWSGAVTHYSDSVQGRFTISRDNAKNTVYLQMNSLRAEDTGRYYCAEDYDTDVWQYWGQGTQVTVSS
notes: V7R-2E9 with E44G, K87R, S88A

EC50 [1]: 0.797 nM
B10: ID-A36U (VHH)
VHH: EVQLVESGGGLVQAGGSLRLSCESSISTFSSDAMGWFRQAPGKEREFLAAIGWSGAVTHYSDSVQGRFTISRDNAKNTVYLQMNSLRAEDTGRYYCAEDYDTDVWQYWGQGTQVTVSS
notes: V7R-2E9 with K87R, S88A

EC50 [1]: 0.476 nM
B11: ID-A29U (VHH)
VHH: EVQLVESGGGLVQAGGSLRLSCESSISTFSSDAMGWFRQAPGKGLEWLAAIGWSGAVTHYSDSVKGRFTISRDNAKNTVYLQMNSLRSEDTGRYYCAEDYDTDVWQYWGQGTQVTVSS
notes: V7R-2E9 with E44G, R45L, F47W, Q65K, K87R

EC50 [2]: 0.222 nM
B12: V7R-3B5 (VHH)
VHH: EVQLVESGGGLVQVGGSLRLSCESSISTFSSDAMGWFRQAPGKEREFLAAIGWSGAVTHYSDSVQGRFTISRDNAKNTVYLQMNSLKSEDTGRYYCAEDYDTDVWQYWGQGTQVTVSS
notes: as for B4

EC50 [1]: 0.367 nM
B13: ID-A32U (VHH)
VHH: EVQLVESGGGLVQAGGSLRLSCESSISTFSSDAMGWFRQAPGKGREFLAAIGWSGAVTHYSDSVQGRFTISRDNAKNTVYLQMNSLRSEDTGRYYCAEDYDTDVWQYWGQGTQVTVSS
notes: V7R-2E9 with E44G, K87R

EC50 [1]: 0.429 nM
B14: ID-A33U (VHH)
VHH: EVQLVESGGGLVQAGGSLRLSCESSISTFSSDAMGWFRQAPGKGREFLAAIGWSGAVTHYSDSVQGRFTISRDNAKNTVYLQMNSLKAEDTGRYYCAEDYDTDVWQYWGQGTQVTVSS
notes: V7R-2E9 with E44G, S88A

EC50 [2]: 0.264 nM
B15: V7R-2B6 (VHH)
VHH: EVQLVESGGGLVQAGGSLRLSCESSARTFSDDAMGWFRQAAGKEREFLAAINWSGAVTHYGDSVKGRFTISRDNAKNTVYLQMDSLKPEDTAVYYCAEDYDTDVWQHWGQGTQVTVSS
notes: as for B4

EC50 [2]: 0.416 nM
B16: V7R-6C12 (VHH)
VHH: EVQLVESGGGLVQAGGSLRLSCESSISTFSSDAMGWFRQAPGKEREFLAAIGWSGAVTHYSDSVKGRFTISRDNAKNTVYLQMNSLKSEDTGRYYCAEDYVTDVWQYWGQGTQVTVSS
notes: llama ICVD, primary clone, expressed in E. coli TG1; also called IL-7R-6C12; not shown: C-terminal FLAG and 6xHis tags from vector pMEK222

EC50 [2]: 0.64 nM
B17: V7R-2E5 (VHH)
VHH: EVQLVESGGGLVQPGGSLRLSCESSISTFSSDAMGWFRQAPGKEREFLAAIGWSGAVTHYSDSVQGRFTISRDNAKNTVYLQMNSLKSEDTGRYYCAEDYDTDVWQYWGQGTQVTVSS
notes: as for B4

EC50 [1]: 0.789 nM
B18: ID-A38U (VHH)
VHH: EVQLVESGGGLVQAGGSLRLSCESSISTFSSDAMGWFRQAPGKGREFLAAIGWSGAVTHYSDSVKGRFTISRDNAKNTVYLQMNSLKAEDTGRYYCAEDYDTDVWQYWGQGTQVTVSS
notes: V7R-2E9 with E44G, Q65K, S88A

IC50 (read off the curve) (ID-A40U [3]): ~0.03 µg/mL | IC50 (read off the curve) (ID-A40U [4]): ~0.02 µg/mL | IC50 (read off the curve) (ID-A40U [5]): ~0.02 µg/mL
B19: human IL-7Rα (receptor)
chain: ESGYAQNGDLEDAELDDYSFSCYSQLEVNGSQHSLTCAFEDPDVNTTNLEFEICGALVEVKCLNFRKLQEIYFIETKKFLLIGKSNICVKVGEKSLTCKKIDLTTIVKPEAPFDLSVIYREGANDFVVTFNTSHLQKKYVKVLMHDVAYRQEKDENKWTHVNLSSTKLTLLQRKLQPAAMYEIKVRSIPDHYFKGFWSEWSPSYYFRTPEINNSSGEMD
notes: native receptor on human lymphocytes, monocytes and UC biopsy tissue in the cell assays; also called CD127

Binder: B20
binding result (cynomolgus monkey IL-7Rα): binds

Binder: B21
IC50 (read off the curve) (ID-A40U [3]): ~0.01 µg/mL | IC50 (read off the curve) (ID-A59U): ~0.03 µg/mL | IC50 (read off the curve) (ID-A62U): ~0.02 µg/mL
